Measured values as given in patent publication US20100323957A1, “NOVEL ASSAY FOR INHIBITORS OF EGFR” (THE REGENTS OF THE UNIVERSITY OF CALIFORNIA THE OFFICE OF …, priority 2007, published 2010).
Values belong to the compound of their own block, whether it stands above or below them.

Experiments:
gastric cancer cells = conditions: cited from earlier work
[1] = system: cancer cells in colon cancer; conditions: in vitro; cited from earlier work
biliary tract cancer = conditions: in vitro; cited from earlier work
[2] = target: T1, EGFR kinase domain V924R mutant (Homo sapiens, UniProt P00533, V948R); test: Fluorescence anisotropy binding titration, V924R mutant kinase domain; conditions: result in words
T1 construct: DNA encoding residues 672-998 of human EGFR was cloned into pFAST BAC HT; 6-His tag, linker and TEV cleavage site (N, cleaved yes); made in house; host or cells: Sf9 insect cells (baculovirus)
Source text: (§1) The wild-type and mutant forms of the EGFR kinase domain were expressed and purified using methods known in the art and described in Zhang et al., (2006). The 60-residue MIG6 peptide was expressed in bacteria as a glutathione S-transferase (GST)-fusion protein, purified and treated with the TEV protease to remove the GST-moiety. The wild-type and Y358A mutant MIG6(segments 1-2) peptides were fused to a Trp DLE leader peptide and expressed as inclusion bodies and purified as described. All other MIG6 peptides were produced using solid phase synthesis. […] The binding affinities between the kinase domain and fluorescein-labeled MIG6 peptides were measured by monitoring the change of fluorescence anisotropy during the titration and fitting the data to a single-site binding model. Kinase assays in solution and on vesicle were performed using methods known in the art and described herein. Cell-based inhibition assays were performed using Cos-7 cells co-transfected with constructs containing full-length EGFR and MIG6.
(§2) Fluorescein-labelled 30-residue wild-type, M346L, M346A, F352A and Y358A MIG6 peptides were diluted to final concentrations of 5, 8, 3.1, 3.5 and 2.7 μM in a buffer containing 10 mM Tris, 50 mM NaCl and 2 mM DTT, pH7.5. […] The fluorescence anisotropy at each titration step was monitored. […]

[3] = target: T2, wild-type EGFR kinase domain (Homo sapiens, UniProt P00533); test: Fluorescence anisotropy binding titration, wild-type kinase domain; conditions: result in words
T2 construct: DNA encoding residues 672-998 of human EGFR was cloned into pFAST BAC HT; 6-His tag, linker and TEV cleavage site (N, cleaved yes); made in house; host or cells: Sf9 insect cells (baculovirus)
Source text: as §1
Fluorescein-labelled 30-residue wild-type, M346L, M346A, F352A and Y358A MIG6 peptides were diluted to final concentrations of 5, 8, 3.1, 3.5 and 2.7 μM in a buffer containing 10 mM Tris, 50 mM NaCl and 2 mM DTT, pH7.5. These peptides in the cuvette were then titrated with the wild-type or mutant forms of the EGFR kinase domain at 20 uC. For the competition assays, the labeled 30-mer wild-type peptide ([…]) and kinase domain ([…]) were mixed and titrated with unlabelled competitor peptides. The fluorescence anisotropy at each titration step was monitored. The I682Q and K799E mutant kinases used in the binding assays contain the N-terminal 63H is tag and linker fragment before the kinase domain, whereas this N-terminal fragment in the wild-type and V924R mutant kinases was removed by Tobacco Etch Virus protease treatment.

[4] = target: T3, EGFR kinase domain attached to lipid vesicles (activated EGFR kinase) (Homo sapiens, UniProt P00533); test: Vesicle-based kinase assay: EGFR kinase domain attached to lipid vesicles; assay type: biochemical; conditions: for inhibition of activity of kinase domain attached to lipid vesicles: result in words
T3 construct: DNA encoding residues 672-998 of human EGFR was cloned into pFAST BAC HT; made in house; host or cells: Sf9 insect cells (baculovirus)
Source text: as §1

[5] = target: T4, EGFR kinase domain I682Q mutant (Homo sapiens, UniProt P00533, I706Q); test: Kinase assay in solution, I682Q mutant kinase domain (basal activity); assay type: biochemical; conditions: result in words
T4 construct: DNA encoding residues 672-998 of human EGFR was cloned into pFAST BAC HT; made in house; host or cells: Sf9 insect cells (baculovirus)
Protocol: The EGFR kinase domain has very low activity in solution, but is activated on increasing its local concentration by tethering it to lipid vesicles, which promotes the formation of the asymmetric dimer. […] An EGFR kinase domain bearing an I682Q mutation is not stimulated by concentration at the membrane because it is unable to form the asymmetric dimer. […] Thus, MIG6(segment 1) is only able to inhibit the kinase domain in the context of asymmetric dimer formation.
(§3) Kinase assays were performed using methods known in the art and described herein. The substrate peptide was kept at 1 mM in all the experiments. The reported rates are the initial velocities normalized by the kinase concentrations. The wild-type kinase concentrations in the vesicle-based and solution-based assays were […] respectively.
(§4) A continuous enzyme-coupled kinase assay was performed to measure the kinase activity of the proteins as described in Barker et al., ((1995) Biochemistry, Vol. 34(54): 14843-51), with modifications, as described herein. The ATP concentration was kept to 0.5 mM.
(§5) The buffer used contained 10 mM MgCl2, 20 mM Tris, and pH 7.5. […] The substrate peptide was derived from the region spanning Y1173 in EGFR ([…]). All proteins used in this assay contained the N-terminal (His)6 tag unless otherwise noted.

[6] = target: T5, EGFR kinase domain L834R mutant (Homo sapiens, UniProt P00533, L858R); test: Kinase assay in solution, L834R mutant kinase domain; assay type: biochemical; conditions: result in words
T5 construct: DNA encoding residues 672-998 of human EGFR was cloned into pFAST BAC HT; made in house; host or cells: Sf9 insect cells (baculovirus)
Protocol: To test the role of segment 2, we produced a longer peptide (residues 336-412, MIG6(segments 1-2)), and analyzed its effect on a variant of the EGFR kinase domain that contains a mutation (L834R) that renders it constitutively active in the absence of concentration on vesicles. MIG6(segments 1-2) inhibits this mutant kinase domain with an IC50 value of ˜200 nM (FIG. 25a). MIG6(segments 1-2) bearing a mutation within segment 1 (Y358A) inhibited L834R much less efficiently (IC50˜5 μM).
as §3, §4, §5

[7] = target: T4, EGFR kinase domain I682Q mutant; test: Fluorescence anisotropy binding titration, I682Q mutant kinase domain; conditions: result in words
Source text: as §1, §2

lung cancer = conditions: patients with lung cancer; cited from earlier work

Compound: COc1cc2ncnc(Nc3ccc(F)c(Cl)c3)c2cc1OCCCN1CCOCC1 [gefitinib]
apoptosis of gastric cancer cells (gastric cancer cells): increase apoptosis
growth of cancer cells [1]: halt the growth of cancer cells
growth of cancer cells (biliary tract cancer): halt the growth of cancer cells

binding to EGFR kinase domain bearing V924R mutation [2]: abolishes peptide binding
Compound: 30-residue fluorescein-labelled MIG6 peptide: fluorescein-labelled MIG6 peptide, residues 334-363, spanning the entire binding epitope of segment 1

Compound: Y358A: 30-residue MIG6 segment 1 peptide with Y358A mutation (SPKSLPSYLNGVMPPTQSFAPDPKAVSSKA; UniProt Q9UJM3 334-363, looked up, variant Y358A)
binding to the wild-type EGFR kinase domain [3]: abrogates binding
inhibition of activity of kinase domain attached to lipid vesicles [4]: do not inhibit kinase activity significantly

Compound: MIG6(segment 1): 25-residue epitope of MIG6 (residues 337-361) binding the EGFR kinase domain; tested as the 30-residue peptide
inhibition of basal activity of I682Q mutant kinase domain in solution [5]: not inhibited
inhibition of L834R mutant kinase domain [6]: did not inhibit
binding affinity for I682Q mutant kinase domain compared with wild-type [7]: same binding affinity
binding to EGFR kinase domain bearing V924R mutation [2]: does not bind
binding to the wild-type EGFR kinase domain [3]: micromolar affinity

Compound: M346A: 30-residue MIG6 segment 1 peptide with M346A mutation (SPKSLPSYLNGVAPPTQSFAPDPKYVSSKA; UniProt Q9UJM3 334-363, looked up, variant M346A)
binding to the wild-type EGFR kinase domain [3]: abrogates binding
inhibition of activity of kinase domain attached to lipid vesicles [4]: do not inhibit kinase activity significantly

Compound: C#Cc1cccc(Nc2ncnc3cc(OCCOC)c(OCCOC)cc23)c1 [Erlotinib]
survival times (lung cancer): increases survival times by several months

Compound: F352A: 30-residue MIG6 segment 1 peptide with F352A mutation (SPKSLPSYLNGVMPPTQSAAPDPKYVSSKA; UniProt Q9UJM3 334-363, looked up, variant F352A)
binding to the wild-type EGFR kinase domain [3]: abrogates binding
inhibition of activity of kinase domain attached to lipid vesicles [4]: do not inhibit kinase activity significantly

Compound: KSLPSYLNGVMPPTQSFAPDPKYVSS (chains of the parent or of the whole protein) [40-mer peptide]
IC50 ([4]; vesicle-based kinase assay, read-out: IC50 for inhibiting the activated EGFR kinase (kinase domain attached to lipid vesicles)): ~10 µM
